Assays:
[1] = target: T1, Csm2 (wild type);Psy3 (wild type) (Saccharomyces cerevisiae;Saccharomyces cerevisiae) (UniProt P40465+Q12318); experiment: fluorescence anisotropy; details: heparin preparation, Anisotropy: 20 mM Tris pH 8.0, 20-25 nM DNA (2.5-5 nM in Fig 4d), EMSA: 25 mM Tris-HCl pH 8.0, 50 mM NaCl
T1 sequence 1: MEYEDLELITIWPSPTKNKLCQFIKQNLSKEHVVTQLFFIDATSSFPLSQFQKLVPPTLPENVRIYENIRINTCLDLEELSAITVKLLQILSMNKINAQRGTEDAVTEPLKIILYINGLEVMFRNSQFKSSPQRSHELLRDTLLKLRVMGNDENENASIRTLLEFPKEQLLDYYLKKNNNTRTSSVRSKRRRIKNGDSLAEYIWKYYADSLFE
T1 sequence 2: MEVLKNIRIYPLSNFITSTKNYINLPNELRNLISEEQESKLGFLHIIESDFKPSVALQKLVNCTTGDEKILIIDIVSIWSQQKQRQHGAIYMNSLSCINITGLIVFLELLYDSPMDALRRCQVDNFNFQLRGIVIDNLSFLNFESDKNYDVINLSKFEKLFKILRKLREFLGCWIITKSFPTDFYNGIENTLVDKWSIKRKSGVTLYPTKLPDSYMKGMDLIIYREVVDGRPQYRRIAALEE

[2] = target: T2, Csm2 (wild type);Psy3 (wild type);Shu1;Shu2 (Saccharomyces cerevisiae;Saccharomyces cerevisiae;Saccharomyces cerevisiae;Saccharomyces cerevisiae) (UniProt P40465+Q12318+P38751+P38957); experiment: fluorescence anisotropy; details: 5 nM DNA, quadratic fit; N21 of strand 1 = THF abasic analog (ssDNA at ss/ds junction); Anisotropy: 20 mM Tris pH 8.0, 20-25 nM DNA (2.5-5 nM in Fig 4d), protein titrated from 1 M NaCl stock; EMSA: 25 mM Tris-HCl pH 8.0, 50 mM NaCl, 1 mM DTT …
T2 sequence 1: T1 sequence 1
T2 sequence 2: T1 sequence 2
T2 sequence 3: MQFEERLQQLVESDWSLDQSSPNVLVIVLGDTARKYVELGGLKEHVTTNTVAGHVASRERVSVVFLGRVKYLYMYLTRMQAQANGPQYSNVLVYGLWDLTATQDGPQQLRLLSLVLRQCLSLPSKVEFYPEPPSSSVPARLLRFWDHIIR
T2 sequence 4: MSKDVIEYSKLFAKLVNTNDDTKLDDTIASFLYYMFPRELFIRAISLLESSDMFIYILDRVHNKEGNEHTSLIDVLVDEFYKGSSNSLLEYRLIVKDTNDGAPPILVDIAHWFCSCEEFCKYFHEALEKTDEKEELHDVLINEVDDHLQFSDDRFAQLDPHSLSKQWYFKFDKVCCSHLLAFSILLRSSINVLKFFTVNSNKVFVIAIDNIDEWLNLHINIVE

[3] = N20 of strand 1 = THF abasic analog, protein titrated from 1 M NaCl …, 1 mM DTT, 100 u
[4] = N31 of strand 1 = THF abasic analog, protein titrated from 1 M NaCl …, 1 mM DTT, 100 u

TTTTTTTTTTTTTTTTTTTNCTTGACAAGCTTGCGCACTG / CAGTGCGCAAGCTTGTCAAGTTTTTTTTTTTTTTTTTTTT [AP2 double-flap]
Kd [1, 3]: 127 nM

TTTTTTTTTTTTTTTTTTTTNTTGACAAGCTTGCGCACTG / CAGTGCGCAAGCTTGTCAAGTTTTTTTTTTTTTTTTTTTT [AP3 double-flap]
Kd ([1]; N21 of strand 1 = THF abasic analog, protein titrated from 1 M NaCl …, 1 mM DTT, 100 u): 104 nM

CAGTGCCGAAGCTTGTCAAGTTTTTTTTTTNTTTTTTTTT / TTTTTTTTTTTTTTTTTTTTCTTGACAAGCTTGCGCACTG [AP5 double-flap]
Kd [1, 4]: 142 nM

CAGTGCCGANGCTTGTCAAGTTTTTTTTTTTTTTTTTTTT / TTTTTTTTTTTTTTTTTTTTCTTGACAAGCTTGCGCACTG [AP8 double-flap]
Kd ([1]; N10 of strand 1 = THF abasic analog (in dsDNA), protein titrated from 1 M NaCl stock, 1 mM DTT …): 153 nM

CAGTGCCGAAGCTTGTCAAGNTTTTTTTTTTTTTTTTTTT / TTTTTTTTTTTTTTTTTTTTCTTGACAAGCTTGCGCACTG [AP6 double-flap]
Kd ([1]; text gives 71, N21 of strand 1 = THF abasic analog (ssDNA at ss/ds junction), protein titrated from 1 M NaCl stock, 1 mM DTT …): 72 nM
Kd [2]: 72 nM

TTTTTTTTTNTTTTTTTTTTCTTGACAAGCTTGCGCACTG / CAGTGCGCAAGCTTGTCAAGTTTTTTTTTTTTTTTTTTTT [AP1 double-flap]
Kd ([1]; N10 of strand 1 = THF abasic analog (dSpacer), protein titrated from 1 M NaCl stock, 1 mM DTT …): 105 nM

CAGTGCCGAAGCTTGTCAANTTTTTTTTTTTTTTTTTTTT / TTTTTTTTTTTTTTTTTTTTCTTGACAAGCTTGCGCACTG [AP7 double-flap]
Kd [1, 3]: 112 nM

TTTTTTTTTTTTTTTTTTTTCTTGACAAGCNTGCGCACTG / CAGTGCGCAAGCTTGTCAAGTTTTTTTTTTTTTTTTTTTT [AP4 double-flap]
Kd [1, 4]: 131 nM
